This note sets out measurements from patent US20210269525A1 (BIOCYTOGEN PHARMACEUTICALS BEIJING, published 2021).

In general, Kd refers to the equilibrium constant for the complex coming apart. Higher therefore signals lower affinity. For orientation: koff means the rate constant with which the complex falls apart. The low end stands for a long-lived complex, the high end for a short-lived complex. What is called kon is a measure of how fast the partners come together.

Experiment [1] deals with human CD3e (T-cell surface glycoprotein CD3 epsilon chain) (human, UniProt P07766 23-207). Nature of the experiment: cell-based or functional assay.
Experiment [2] has as its target T1, Cynomolgus CD3 epsilon Protein, His Tag (Acrobiosystems, Cat #CDE-05226) (cynomolgus (Macaca fascicularis), UniProt Q95LI5 22-117).
T1 construct: also called monkey CD3e; not shown: His tag
T1 sequence: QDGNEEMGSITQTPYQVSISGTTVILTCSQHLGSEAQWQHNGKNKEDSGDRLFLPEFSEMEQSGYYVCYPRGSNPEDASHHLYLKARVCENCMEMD
In words: SPR (Biacore), cynomolgus CD3e His tag. The procedure:
The binding affinity of the anti-hCD3e antibodies with monkey CD3e (Cynomolgus CD3 epsilon Protein (SEQ ID NO: 39 AA Gln 22-Asp 117), His Tag, Acrobiosystems, Cat #CDE-05226) were also measured using surface plasmon resonance (SPR) using Biacore (Biacore, INC, Piscataway N.J.) by the methods as described in the examples.
A general note: SPR reads the build-up and loss of mass on a sensor chip optically.

Experiment [3] concerns the target T2, Histidine-tagged human CD3e protein (human, UniProt P07766 23-126).
T2 construct: also called hCD3e-His; not shown: His tag
In words: SPR (Biacore), human CD3e; same numbers as Table 7.

Experiment [4] concerns the target T2, Histidine-tagged human CD3e protein. Nature of the experiment: SPR, Biacore T200, antibody on Protein A chip, hCD3e-His injected. The procedure: (§1) The binding affinity of the anti-hCD3e antibodies were measured using surface plasmon resonance (SPR) using Biacore (Biacore, INC, Piscataway N.J.) T200 biosensor equipped with pre-immobilized Protein A sensor chips (Protein A (Lot:10260138)-5).
Anti-hCD3e antibodies were collected from CHO-S cells. The antibodies (1:20) were injected into Biacore T200 biosensor at 10 μL/min for 35 seconds to achieve to a desired protein density. Histidine-tagged human CD3e proteins (hCD3e-His) with different concentrations (100 nM 0.390625 nM) were then injected to the system at 30 μL/min for 150 seconds. Dissociation was monitored for 600 seconds. The chip was regenerated after the last injection of each titration with Glycine (pH 2.0, 30 μL/min for 5 seconds).

For experiment [5], the target named is T3, Histidine-tagged rCD3e protein (rhesus macaque, Macaca mulatta) (rhesus macaque (Macaca mulatta), UniProt Q95LI5 22-117 (cynomolgus entry), limits assumed).
T3 construct: also called rCD3e-His; rmCD3e; not shown: His tag
T3 chain: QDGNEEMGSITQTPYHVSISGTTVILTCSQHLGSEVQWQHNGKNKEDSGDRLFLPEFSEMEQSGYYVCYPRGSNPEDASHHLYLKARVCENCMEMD
In words: SPR, Biacore T200, antibody on Protein A chip, rCD3e-His injected. The procedure: as §1
Experiments were also performed to test the binding affinities with rCD3e (rhesus macaque, or Macaca mulatta). Anti-hCD3e antibodies (1:20) were injected into Biacore T200 biosensor at 10 μL/min for 30 seconds to achieve to a desired protein density. Histidine-tagged rCD3e proteins (rCD3e-His) with different concentrations (100 nM 0.390625 nM) were then injected to the system at 30 μL/min for 150 seconds. Dissociation was monitored for 450 seconds. The chip was regenerated after the last injection of each titration with Glycine (pH 2.0, 30 μL/min for 12 seconds).

Experiment [6] addresses T2, Histidine-tagged human CD3e protein. Nature of the experiment: SPR (Biacore), human CD3e; same numbers as Table 7. This is another data set of the same source.

B1: 25-10A4 (antibody, V domains shown)
VH: QVQLQQSGPELVKPGASVRISCKASGYTFTSYYIHWVKQRPGQGLEFIGWIYPGNVNAKYNEKFKGKATLTTDKSSTTAYMQLSSLTSEDSAVYFCAIKGGNYDWGQGTLVTVSA
VL: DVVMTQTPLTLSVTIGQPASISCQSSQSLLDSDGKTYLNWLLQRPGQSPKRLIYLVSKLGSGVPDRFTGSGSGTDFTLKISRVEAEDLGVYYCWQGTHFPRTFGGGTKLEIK
Regarding B1, the “EC50, luciferase of Jurkat-Luc-NFAT cells with CHO-FcγRIIB cells” value in experiment [1] stood at 0.421 µg/mL.

B2: C3E-25-10A4-mHvKv-IgG1-LALA (antibody, V domains shown)
VH: QVQLQQSGPELVKPGASVRISCKASGYTFTSYYIHWVKQRPGQGLEFIGWIYPGNVNAKYNEKFKGKATLTTDKSSTTAYMQLSSLTSEDSAVYFCAIKGGNYDWGQGTLVTVSA
VL: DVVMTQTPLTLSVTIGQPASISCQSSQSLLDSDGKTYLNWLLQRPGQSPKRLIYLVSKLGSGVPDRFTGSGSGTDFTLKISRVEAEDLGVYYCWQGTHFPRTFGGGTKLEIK
notes: Chimeric
Turning to B2, the Kd in experiment [2] came out at 9.05 nM; in experiment [3], 5.37 nM; in experiment [4], 5.37 nM; in experiment [5], 2.05 nM. Further, the koff in experiment [2] stood at 0.000453 s⁻¹; in experiment [3], 0.000384 s⁻¹; in experiment [4] it was 0.000384 s⁻¹; in experiment [5] it was 0.000251 s⁻¹. The association rate constant (kon) in experiment [2] came to 50000 M⁻¹ s⁻¹; in experiment [3] it was 71500 M⁻¹ s⁻¹; in experiment [4], 71500 M⁻¹ s⁻¹; in experiment [5] it was 123000 M⁻¹ s⁻¹.

B3: 30-1B1 (antibody, V domains shown)
VH: QVQLQQPGSELVRPGASVKLSCKASGYTFTSYWMHWVKQRHGQGLEWIGNIYPDSGTTNYGEKFKTKGTLTVDTSSSTAYMHLSSLTSEDSAVYYCTRDTSGQYYFDYWGQGTTLTVSS
VL: DIVMSQSPSSLAVSAGEKVTMSCKSSQSLLNSRTRKNYLAWYQHKPGQSPKLLIYWASTRESGVPDRFTGSGSGTDFTLTISSVQAEDLAVYYCVQSFSLRAFGGGTKLEIK
With B3, the “EC50, luciferase of Jurkat-Luc-NFAT cells with CHO-FcγRIIB cells” value in experiment [1] came out at 2.98 µg/mL.

B4: C3E-30-1B1-mHvKv-IgG1-LALA (antibody, V domains shown)
VH: QVQLQQPGSELVRPGASVKLSCKASGYTFTSYWMHWVKQRHGQGLEWIGNIYPDSGTTNYGEKFKTKGTLTVDTSSSTAYMHLSSLTSEDSAVYYCTRDTSGQYYFDYWGQGTTLTVSS
VL: DIVMSQSPSSLAVSAGEKVTMSCKSSQSLLNSRTRKNYLAWYQHKPGQSPKLLIYWASTRESGVPDRFTGSGSGTDFTLTISSVQAEDLAVYYCVQSFSLRAFGGGTKLEIK
notes: Chimeric
Turning to B4, the Kd turned out to be 4.54 nM in experiment [2], 0.988 nM in experiment [6], 0.988 nM in experiment [4] and 0.752 nM in experiment [5]. Besides, the koff is 0.00049 s⁻¹ in experiment [2], 0.000509 s⁻¹ in experiment [6], 0.000509 s⁻¹ in experiment [4] and 0.00039 s⁻¹ in experiment [5]. The kon in experiment [2] turned out to be 108000 M⁻¹ s⁻¹; in experiment [6], 516000 M⁻¹ s⁻¹; in experiment [4], 516000 M⁻¹ s⁻¹; in experiment [5] it was 518000 M⁻¹ s⁻¹.
